The assay addresses human IgG (of human serum; IgG against AAV8 in AAV8 positive human serum pools CP16 and P1) (human). The assay can be described thus: cell-based or functional assay.

B1: Xork1.3-Fc-HD-H435R (Fc fusion)
chain: MTLWADGVQVDDKDFKPSTENFGTNYLAAEYGIGKGYYDINKKFDGTDDDLCSGVVAANQLHWWLDRNKDYIEKYRQQSKDNGVTIGNTDIFELNKLHDEDQSNFFDFIKKSFGNKFLQPERLLNMYINGYGYLTSQDKAKTSQPSPSKLNFFQKVFKNNLLTDKTPINDIDEFSSQTKNALQNHKVLAVSFASIKNRGLGHVVTVWGADFDENGKVVALYVTDSDDRSKNIGNAKLGMKKLRIEVSAQDSSTIKLTGFEDKNSGGSLRHLYSLSTGEQIWKKYFEETEPKSSDKTHTCPPCPAPELLSSPSVFLFPPKPKDTLMISRTPEVTCVVVDVSHEDPEVKFNWYVDGVEVHNAKTKPREEQYNSTYRVVSVLTVLHQDWLNGKEYKCKVSNKALPAPIEKTISKAKGQPREPQVYTLPPSRDELTKNQVSLTCLVKGFYPSDIAVEWESNGQPENNYKTTPPVLDSDGSFFLYSKLTVDKSRWQQGNVFSCSVMHEALHNRYTQKSLSLSPG
Regarding B1, the SEAP levels in passively immunized mice (% lower than in non-immunized controls) came out at 20.

The values are drawn from US20240148841A1.
